Reference: PMC4161474

What was measured:
Assay in all cases: co-IP; HEK293 cells co-transfected with Flag-HBx wt or alanine substitution mutants and His-myc-Spin1; precipitated with anti-Flag antibodies, anti-Myc and anti-Flag blots quantified with the Odyssey system; signal normalised to HBx in the IP/HBx in the input, Flag-HBx wt set to 100% (Figure 1C)
[1] = target: Flag-HBx Cm7, clustered alanine substitution mutant (Hepatitis B virus) (UniProt P69713)
[2] = target: Flag-HBx Cm9, clustered alanine substitution mutant (Hepatitis B virus) (UniProt P69713)
[3] = target: Flag-HBx Cm8, clustered alanine substitution mutant (Hepatitis B virus) (UniProt P69713)
[4] = target: Flag-HBx Cm5, clustered alanine substitution mutant (Hepatitis B virus) (UniProt P69713)
[5] = target: Flag-HBx Cm13, clustered alanine substitution mutant (Hepatitis B virus) (UniProt P69713)

His-Myc-Spindlin1 (from UniProt Q9Y657 1-262) (natural protein)
percent of Spindlin1 immunoprecipitated (Flag-HBx wt = 100%) [1]: 13% | percent of Spindlin1 immunoprecipitated (Flag-HBx wt = 100%) [2]: 28% | percent of Spindlin1 immunoprecipitated (Flag-HBx wt = 100%) [3]: 52% | percent of Spindlin1 immunoprecipitated (Flag-HBx wt = 100%) [4]: 10% | percent of Spindlin1 immunoprecipitated (Flag-HBx wt = 100%) [5]: 29%
